T1: human IL-17C (human, UniProt Q9P0M4 19-197)
T1 construct: Secreted homodimer; bought or made in-house; Novus #NBP1-42910 in the cell assays; also called hIL-17C; hGT454
T1 sequence: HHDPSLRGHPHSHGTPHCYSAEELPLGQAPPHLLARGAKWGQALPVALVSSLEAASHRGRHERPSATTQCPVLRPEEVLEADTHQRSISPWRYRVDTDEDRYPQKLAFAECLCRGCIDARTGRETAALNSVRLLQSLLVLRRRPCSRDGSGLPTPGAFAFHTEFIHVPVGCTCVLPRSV

T2: cynomolgus IL-17C (cynomolgus monkey, UniProt Q9P0M4 19-197 (human entry), limits assumed)
T2 chain: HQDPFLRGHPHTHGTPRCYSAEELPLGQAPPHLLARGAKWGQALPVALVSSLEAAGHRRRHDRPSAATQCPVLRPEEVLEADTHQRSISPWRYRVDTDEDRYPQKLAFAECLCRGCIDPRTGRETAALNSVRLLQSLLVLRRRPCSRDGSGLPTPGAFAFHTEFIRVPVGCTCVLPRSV

T3: mouse IL-17C (mouse, UniProt Q8K4C5 17-194)
T3 sequence: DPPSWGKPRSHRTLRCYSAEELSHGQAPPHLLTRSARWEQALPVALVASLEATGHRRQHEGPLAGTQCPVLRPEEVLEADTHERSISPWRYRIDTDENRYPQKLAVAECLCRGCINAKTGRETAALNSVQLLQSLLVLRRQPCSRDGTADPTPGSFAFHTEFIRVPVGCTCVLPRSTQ


What was measured:
human IL-17C [1] = target: T1, human IL-17C; assay: SET (ECL based), IgG, bivalent affinity, hGT454
Protocol: (§1) Additionally monovalent Fab and bivalent IgG affinity was determined by SET. Therefore purified Fabs and IgGs were titrated on human or mouse IL-17C for EC₅₀ determination. The results confirmed the proposed avidity effect exerted by IgG antibodies forming mainly class III complexes.
(§2) Solution equilibrium titration (SET) was basically performed as described in the literature (Friquet et al., (1985) J. Immunol. Meth. 77: 305-19). In order to improve the sensitivity and accuracy of the SET method, it was transferred from classical ELISA to ECL based technology (Haenel et al. (2005) Anal Biochem. 339.1: 182-84).

human IL-17C [2] = target: T1, human IL-17C; assay: MSD receptor binding inhibition: IgG with biotinylated IL-17C on coated IL17RE/Fc (head: hIL-17C-hIL17RE; text: mouse IL17RE/Fc)
Protocol: Purified IL-17C specific IgGs were tested in mIL-17 RE interaction assay. Therefore MA6000 384 well plates (Meso Scale Discovery, MSD) were coated with 30 μl mouse IL17RE/Fc chimeric protein at 75 ng/ml in PBS at 4° C. overnight. The next day a serial antibody dilution (concentrations from 0.001 to 100 nM) were pre-incubated for 30 min at RT with an equal volume of biotinylated IL-17C. After blocking of plates for 1 h with 2.5% BSA in PBST, previously formed antibody-ligand complexes were added for 1 h to coated IL17RE/Fc and receptor binding was detected via Streptavidin-ECL using MSD Sector Imager.

cynomolgus IL-17C = target: T2, cynomolgus IL-17C; assay: cell-based or functional assay
mouse IL-17C [3] = target: T3, mouse IL-17C; assay: cell-based or functional assay
human IL-17C [4] = target: T1, human IL-17C; assay: cell-based or functional assay
human IL-17C [5] = target: T1, human IL-17C; assay: cell-based or functional assay; remark: listed apart in the source
mouse IL-17C [6] = target: T3, mouse IL-17C; assay: SET (ECL based), IgG, bivalent affinity, mGT454
Protocol: as §1, §2

human IL-17C [7] = target: T1, human IL-17C; assay: SET (ECL based), Fab, monovalent affinity, hGT454
Protocol: as §1, §2

mouse IL-17C [8] = target: T3, mouse IL-17C; assay: SET (ECL based), Fab, monovalent affinity, mGT454
Protocol: as §1, §2

| Binder | EC50 (human IL-17C [1]) [nM] | IC50 (human IL-17C [2]) [nM] | NF-kB reporter gene assay (IgG) IC50 [pM] (cynomolgus IL-17C) | NF-kB reporter gene assay (IgG) IC50 [pM] (mouse IL-17C [3]) | NF-kB reporter gene assay (IgG) IC50 [pM] (human IL-17C [4]) | NHEK assay IC50 [pM] (expression of DEFB4A) (human IL-17C [5]) | EC50 (mouse IL-17C [6]) [nM] | EC50 (human IL-17C [7]) [nM] | EC50 (mouse IL-17C [8]) [nM] |
| --- | --- | --- | --- | --- | --- | --- | --- | --- | --- |
| mab_1 (IgG1) (antibody, V domains shown, Human IgG1 from the Ylanthia library, VH3-23 / Vlambda3-1, made in HKB11 cells) VH: not shown VL: SYELTQPPSVSVSPGQTASITCSGDKLGDKYAYWYQQKPGQSPVLVIYQDSKRPSGIPERFSGSNSGNTATLTISGTQAEDEADYYCQAWTFPLLTWVFGGGTKLTVLG | 0.017 | 0.04 | 24 | 46 | 29 | 415 | 0.15 |  |  |
| mab_1 Fab (Fab, V domains shown, His-tagged Fab made in E. coli; also called mab_1 (Fab format)) VH: not shown VL: SYELTQPPSVSVSPGQTASITCSGDKLGDKYAYWYQQKPGQSPVLVIYQDSKRPSGIPERFSGSNSGNTATLTISGTQAEDEADYYCQAWTFPLLTWVFGGGTKLTVLG |  |  |  |  |  |  |  | 4.8 | 72 |
| mab_8 (IgG1) (antibody, V domains shown, Human IgG1 from the Ylanthia library, VH3-23 / Vlambda3-1, made in HKB11 cells) VH: not shown VL: SYELTQPPSVSVSPGQTASITCSGDKLGDKYAYWYQQKPGQSPVLVIYQDSKRPSGIPERFSGSNSGNTATLTISGTQAEDEADYYCQVFTFPLVTTVFGGGTKLTVLG | 0.022 | 0.13 | 39 | 1770 | 42 | 93 | 3.35 |  |  |
| mab_8 Fab (Fab, V domains shown, His-tagged Fab made in E. coli; also called mab_8 (Fab format)) VH: not shown VL: SYELTQPPSVSVSPGQTASITCSGDKLGDKYAYWYQQKPGQSPVLVIYQDSKRPSGIPERFSGSNSGNTATLTISGTQAEDEADYYCQVFTFPLVTTVFGGGTKLTVLG |  |  |  |  |  |  |  | 2.7 | 490 |

— US20200010542A1 (MorphoSys, published 2020)
